Assay results reported in patent publication US7993849B2.

Columns and labels:
[1] = target: human MMP-1 (human) (UniProt P03956)
[2] = target: rat MMP-13 (rat) (UniProt P23097)

Chain of rat TIMP-1 (P30120 24-217 limits assumed): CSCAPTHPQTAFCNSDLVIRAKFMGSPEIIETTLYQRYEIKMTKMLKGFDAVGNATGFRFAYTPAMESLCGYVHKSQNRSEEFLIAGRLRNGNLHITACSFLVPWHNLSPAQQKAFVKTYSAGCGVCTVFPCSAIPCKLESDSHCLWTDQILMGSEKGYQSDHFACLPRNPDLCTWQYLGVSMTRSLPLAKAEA

| MMP-1 activity on fluorogenic peptide substrate (% MMP-1 activity) [1] | MMP-13 activity on fluorogenic peptide substrate (% MMP-13 activity) [2] | Substance |
| --- | --- | --- |
| 27 |  | human TIMP-1 |
|  | 20 | rat TIMP-1 |
